The text below walks through data of patent publication US20230106247A1 (L AND L BIO CO LTD NINGBO CHINA, published 2023).

Assay [1] has as its target T1, human Sirpα-V1-hFc (human, UniProt P78324 31-373).
T1 construct: range 31-373; also called hSirpα (dimer); hSirpα-V1-hFc (dimer); not shown: human IgG1 Fc region at the C-terminus
In words: blocking ELISA, competitor CD47-his. The protocol: (§1) The recombinant proteins such as human Sirpα-V1-hFc/Sirpα-V1-his were diluted to concentrations of 5 μg/mL or 2 μg/mL respectively with a PBS buffer at pH 7.4, and then added into a 96-well ELISA plate (Corning, CLS3590-100EA) at a volume of 50 μL/well, and placed in an incubator at 37° C. for 2 hours. After the liquid was discarded, the wells were added with a blocking solution of 5% skimmed milk (skimmed milk powder available from Bright Dairy) diluted with PBS at 230 μL/well, and incubated in an incubator at 37° C. for 3 hours, or placed overnight at 4° C. (for 16-18 hours) for blocking. […] The plate was washed for 5 times, added with 50 μL/well of streptavidin-HRP (GenScript, M00091) or anti-his-HRP secondary antibody (GenScript, A00612) diluted at 1:1000, incubated at 37° C. for 1 hour, and then washed with PBST for 5 times. Each well was added with 50 μL of TMB (Surmodic, Cat #: TTMB-1000-01) for color development, and added with 50 μL/well of 1 M H₂SO₄ to stop the reaction. The readings on a microplate reader (MultiskanGO Thermo, Model 51119200) were subjected to data analysis by GraphPad prism 5.
For orientation: ELISA stands for enzyme-linked immunosorbent assay.

Assay [2] addresses T2, human Sirpα-V1-his (human, UniProt P78324 31-373).
T2 construct: range 31-373; Bought (Sino Biological 11612-H08H) or expressed in-house; also called hSirpα-V1; hSirpα-V1-his
In words: ELISA.

Assay [3] concerns the target T2, human Sirpα-V1-his. The assay can be described thus: ELISA. The protocol:
(§2) Different antigens (recombinant proteins) such as the human Sirpα-V1-hFc, Sirpα-V1-his, Sirpα-V2-his, Sirpβ-his, Sirpγ-his, monkey Sirpα-his (cynoSirpα-his) or NOD-mSirpα-his described in Example 1 were diluted with a PBS buffer at pH7.4 to concentrations of 1 μg/mL, 2 μg/mL or 5 μg/mL, added into a 96-well ELISA plate (Corning, CLS3590-100EA) at a volume of 50 μL/well, and placed in an incubator at 37° C. for 2 hours. After the liquid was discarded, the wells were added with a blocking solution of 5% skimmed milk (skimmed milk powder available from Bright Dairy) diluted with PBS at 230 μL/well, and incubated in an incubator at 37° C. for 3 hours, or placed overnight at 4° C. (for 16-18 hours) for blocking. […] The plated was washed with PBST for 5 times, then added with 50 μL/well of TMB chromogenic substrate (KPL, Cat #: 52-00-03), incubated at room temperature for 10-15 min, added with 50 μL/well of 1 M H₂SO₄ to stop the reaction, and read by a […] Go microplate reader (ThermoFisher, Cat #: 51119200) for the absorbance value at 450 nm, and then a clone with high binding activity was selected or a EC₅₀ value was calculated according to the OD value. […]
The source holds these as a separate data set.

The target of a further assay is human Sirpα-V2-his (human). The assay can be described thus: ELISA. The protocol: as §2
The target of assay [4] is T2, human Sirpα-V1-his. In words: blocking ELISA, competitor CD47-hFc. The protocol: as §1
The target of assay [5] is T3, human T cells (expressing Sirpγ) (human, UniProt Q9P1W8 29-387).
T3 construct: whole, on cells; The target as printed is the cell; also called human PBMCs (T cells)
In words: flow cytometry on PBMC. On the technique in general: A flow cytometer gives signals particle by particle.

The target of assay [6] is T4, human Sirpα-V1 on CHO-K1 cells (CHO-K1 hSirpα+ cell line) (human, UniProt P78324 31-504).
T4 construct: whole, on cells; also called hSirpα-v1+ cell strain
In words: cell ELISA on CHO-K1 hSirpα+ cells. An excerpt: The readings on a microplate reader (MultiskanGO Thermo, Model 51119200) were subjected to data analysis by GraphPad prism 5.
The light and heavy chain variable region sequences of the aforementioned antibody of the present disclosure and the constant regions of different IgG types, for example human IgG1 (hIgG1), human IgG2 (hIgG2), human IgG3 (hIgG3) or human IgG4 (hIgG4), human light chain κ and λ types; murine mIgG1, mIgG2 or mIgG3, murine light chain κ and λ types, etc. were recombined, expressed and purified to obtain an entire human-murine chimeric antibody and a murine antibody.

Assay [7] addresses T2, human Sirpα-V1-his. In words: blocking ELISA, competitor CD47-hFc. The protocol: as §1, with “5. […]” for “5.”
This is another data set of the same source.

Assay [8] has as its target T1, human Sirpα-V1-hFc. The assay can be described thus: blocking ELISA, competitor CD47-his. The protocol:
as §1, with “5. […]” for “5.”
The source holds these as a separate data set.

The target of another assay is T5, Cyno Sirpα L936 (cynomolgus).
T5 construct: also called RB3-3; Cyno Sirpα polymorphism 3 (L936)
T5 chain: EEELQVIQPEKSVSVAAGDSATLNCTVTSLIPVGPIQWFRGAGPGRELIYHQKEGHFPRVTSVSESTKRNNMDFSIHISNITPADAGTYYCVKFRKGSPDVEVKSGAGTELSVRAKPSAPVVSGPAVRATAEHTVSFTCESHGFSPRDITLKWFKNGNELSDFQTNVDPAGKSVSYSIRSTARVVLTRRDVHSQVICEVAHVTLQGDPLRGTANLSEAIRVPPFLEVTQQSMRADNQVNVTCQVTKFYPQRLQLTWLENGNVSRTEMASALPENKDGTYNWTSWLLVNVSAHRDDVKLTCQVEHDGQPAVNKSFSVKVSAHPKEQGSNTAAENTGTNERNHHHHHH
The assay can be described thus: ELISA.

The target in another assay is T6, Cyno Sirpα L932 (cynomolgus).
T6 chain: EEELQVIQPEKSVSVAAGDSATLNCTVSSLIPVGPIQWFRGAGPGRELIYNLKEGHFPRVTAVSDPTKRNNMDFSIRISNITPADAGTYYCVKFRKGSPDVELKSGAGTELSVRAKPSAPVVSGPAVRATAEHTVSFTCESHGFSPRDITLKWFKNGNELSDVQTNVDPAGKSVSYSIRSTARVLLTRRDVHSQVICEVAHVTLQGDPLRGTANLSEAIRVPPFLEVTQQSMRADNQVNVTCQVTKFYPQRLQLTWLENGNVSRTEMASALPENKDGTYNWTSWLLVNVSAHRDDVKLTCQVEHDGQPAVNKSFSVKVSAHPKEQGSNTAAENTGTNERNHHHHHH
In words: ELISA.

The target in the next assay is T7, Cyno Sirpα L937 (cynomolgus).
T7 construct: also called RB3-5; Cyno Sirpα polymorphism 4 (L937)
T7 chain: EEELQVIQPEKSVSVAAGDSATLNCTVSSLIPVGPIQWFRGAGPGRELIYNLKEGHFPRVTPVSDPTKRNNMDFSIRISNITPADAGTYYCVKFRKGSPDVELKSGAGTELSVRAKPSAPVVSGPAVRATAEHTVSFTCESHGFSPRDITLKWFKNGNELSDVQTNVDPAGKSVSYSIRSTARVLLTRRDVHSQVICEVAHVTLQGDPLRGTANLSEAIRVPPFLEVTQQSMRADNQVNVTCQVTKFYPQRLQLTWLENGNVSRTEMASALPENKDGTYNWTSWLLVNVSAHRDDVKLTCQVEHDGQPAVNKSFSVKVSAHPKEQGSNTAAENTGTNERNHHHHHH
In words: ELISA.

The next assay concerns the target T8, Cyno Sirpα L933 (cynomolgus).
T8 construct: extracellular domain; also called Cyno Sirpα polymorphism 2 (L933)
In words: ELISA.

Like-named read-outs stand apart in the source and are kept apart here.

T3 sequence (Q9P1W8 29-387): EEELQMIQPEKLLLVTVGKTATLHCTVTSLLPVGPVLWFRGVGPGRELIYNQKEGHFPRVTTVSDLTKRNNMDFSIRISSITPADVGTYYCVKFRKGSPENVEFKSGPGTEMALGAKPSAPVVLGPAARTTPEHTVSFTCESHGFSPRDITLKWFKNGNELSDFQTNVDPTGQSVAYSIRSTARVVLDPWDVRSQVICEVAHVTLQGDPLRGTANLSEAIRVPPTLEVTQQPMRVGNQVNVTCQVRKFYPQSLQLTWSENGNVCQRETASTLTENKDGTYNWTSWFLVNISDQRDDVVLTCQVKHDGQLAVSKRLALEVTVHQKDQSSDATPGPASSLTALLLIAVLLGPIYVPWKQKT
human Sirpα-V2-his (human), sequence (chain, as listed by the source): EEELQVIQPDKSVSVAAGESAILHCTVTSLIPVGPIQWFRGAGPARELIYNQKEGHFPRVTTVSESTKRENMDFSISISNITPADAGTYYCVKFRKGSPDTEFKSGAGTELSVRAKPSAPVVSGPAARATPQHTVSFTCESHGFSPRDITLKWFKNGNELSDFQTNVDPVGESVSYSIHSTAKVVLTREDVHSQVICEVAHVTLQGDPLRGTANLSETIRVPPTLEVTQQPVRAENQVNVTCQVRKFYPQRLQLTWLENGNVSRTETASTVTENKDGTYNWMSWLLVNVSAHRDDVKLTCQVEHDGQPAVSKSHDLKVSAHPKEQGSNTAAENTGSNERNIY

B1: human-murine chimeric antibody mab14c (antibody, human IgG4 S228P, kappa, V domains shown)
VH: QVHLQQPGAELVKPGASVKLSCKASGYNFNIYWINWVKQRPGQGLEWIGNIYPSSISTNYNEKFKTKATLTVDKSSNTVYMQFSSLTSEDSAVYYCARSEGTYYGGRYEGDWFGYWGQGTLVTVSA
VL: DIQMTQTTSSLSASLGDRVTISCRASQDIRNYLNWYQQKPDGTVKLLIYFTSTLHSGVPSRFSGSGSGTDYSLTISNLEQEDIATYFCQQGNTLPWTFGGGTKLEIKR
notes: hIgG4, κ
A word on the IC50: it is the concentration that gives 50% inhibition. The term EC50 denotes the midpoint of the concentration-response curve. Low values mean greater potency, high ones weaker potency. On to B1, for which the IC50 with human Sirpα-V1-hFc [1] stood at 5.48 nM; with human Sirpα-V1-his [4], 9.98 nM; in the assay with human Sirpα-V1-his [7], 5.54 nM; with human Sirpα-V1-hFc [8], 5.7 nM. Also, the EC50 in the assay with human Sirpα-V1-his [2] came out at 0.093 nM; in the assay with human Sirpα-V1-his [3], 0.16 nM; with human Sirpα-V2-his, 0.14 nM; in assay [6], 0.29 nM; with Cyno Sirpα L936, 0.099 nM; in the assay with Cyno Sirpα L932, 0.1 nM. Besides, the values for the EC50 in the assay with Cyno Sirpα L937 and in the assay with Cyno Sirpα L933 were 0.099 nM and 0.14 nM, respectively. For the same molecule, the binding result in [5] is given as “no binding (tested: 10 µg/mL)”.
